{"source": "paper PMC5309861", "about": "“Mechanistic insight into the substrate specificity of 1,2-β-oligoglucan phosphorylase from Lachnoclostridium phytofermentans” (Scientific Reports, 2017)", "substrate": "O=P(O)(O)O[C@H]1O[C@H](CO)[C@@H](O)[C@H](O)[C@H]1O", "assay": "phosphate release (molybdate colorimetry), Michaelis-Menten fit", "assay_type": "biochemical, Lachnoclostridium phytofermentans", "conditions": "synthetic reaction, donor, pH 7.0, 30 °C, acceptor not stated", "from_the_text": "phosphate release (molybdate colorimetry), Michaelis-Menten fit on LpSOGP"}
{"protein": "LpSOGP (Lachnoclostridium phytofermentans ISDg) (protein, full length with C-terminal His6 tag (pET28a, kept); E. coli BL21(DE3); theoretical mass 169640 Da as printed; monomer; structure residues 1-1113) MILKTLSAPIILENSNSTFTFLPGGDNFEWIHESIMINAFQGNTLDGSTNNLYLRIYKDNSLAFYPLIGMNSKSTIKSGTSTLIFEGTAEDISYTVTFRLTPYGIWFWDISLSGNCNKADIIYSQDIGVGTKGSVNSNELYLAQYLGHSIFQGDYGYVICSRQNMAQGDLFPYLQQGSLGIRSIAYSTDGTQFFGLSYKKTNIPEALYGDLPSKNKQYELAHTALQTEAFSLSGTKQFSFYGICKTNHPEVIREIEYIQELEKAYAYHESGEILPVNVPTLQNIGAPYASSRWDAKQVEHYFPKRLLEEKEEEALLSFFTPEKSHVVLQDKELTTERPHGHILMTNFDVTKVPQGVVSSTNYMYGAFNCQFVVGNTTYNKLLSNHRGLLNIQKDSGQRIFIKIGDCYRQLTLPAAYEMNVAGSTWYYQLDEDVLIITSFAMYNRPEIVLKVQSLGHKKYDFIVTHQLTVGPNEYENEIKLTREGNILQLSPTDPVVTNHFYPELSFRMRIPEDCTLSDDSIFFHNNTTINPSLLSIEILQKSSFDIVMQGFDTGNVIPFLDQYDYKEQLEAYRIYYDQLVCNFKLSAPDKIPLSAEKLNAIIHWYAHDALIHFASPHGLEQSGGAAWGTRDVCQGPIEFFLTTGHFDLVRHILITLYSHQIEGGFEWPQWFMFDHYPIHQEDCHGDVVFWPLKAISDYIQATGDTSILNELVDYRTAKDALPTNQPETILIHIKRAVTTIKNRYLSGTALISYAGGDWDDTLQPANSELKENLVSAWTQALAEQTLELLCSAIKGIDHDFSKELSHMANDIRTSFYQYLIKDGVIAGFLYRESEEHMKYMLHPDDTESSIHYRLLPLTRSIIAQLADFKLATRNLEIIDEHLACPDGVRLMDHPASYSGGISKIFLRAEQAANVGREISLQYVHAHIRYIEALATMGLSKKAWDALMRINPILLTDYVPNALTRQSNVYFSSSEGCFDDRYEYAKNFDKLRTGDINVKGGWRLYSSGPGIYIRRIIADLLGIRFGHNVIHIDPVVTKELDGVTLQFTCFGKTVFFTYHVDDTMDKHICVKSNNNILPGDNLNNIYRDGGIQIAKDVFLSAAMSDNNFHIYVKN", "values": [{"measurement": "Km", "value": "2600 ± 300", "unit": "µM"}, {"measurement": "kcat", "value": "28 ± 1", "unit": "s⁻¹"}, {"measurement": "kcat/Km", "value": "11000 ± 1000", "unit": "M⁻¹ s⁻¹"}]}
